Measurements from article PMC11371828 (Nature Communications, 2024).

Columns and labels:
Assay in all cases: pull-down
[1] = target: T1, 6xHis-IKKβ(1-669) EE (human, UniProt O14920 1-669, S177E | S181E)
T1 sequence (looked up): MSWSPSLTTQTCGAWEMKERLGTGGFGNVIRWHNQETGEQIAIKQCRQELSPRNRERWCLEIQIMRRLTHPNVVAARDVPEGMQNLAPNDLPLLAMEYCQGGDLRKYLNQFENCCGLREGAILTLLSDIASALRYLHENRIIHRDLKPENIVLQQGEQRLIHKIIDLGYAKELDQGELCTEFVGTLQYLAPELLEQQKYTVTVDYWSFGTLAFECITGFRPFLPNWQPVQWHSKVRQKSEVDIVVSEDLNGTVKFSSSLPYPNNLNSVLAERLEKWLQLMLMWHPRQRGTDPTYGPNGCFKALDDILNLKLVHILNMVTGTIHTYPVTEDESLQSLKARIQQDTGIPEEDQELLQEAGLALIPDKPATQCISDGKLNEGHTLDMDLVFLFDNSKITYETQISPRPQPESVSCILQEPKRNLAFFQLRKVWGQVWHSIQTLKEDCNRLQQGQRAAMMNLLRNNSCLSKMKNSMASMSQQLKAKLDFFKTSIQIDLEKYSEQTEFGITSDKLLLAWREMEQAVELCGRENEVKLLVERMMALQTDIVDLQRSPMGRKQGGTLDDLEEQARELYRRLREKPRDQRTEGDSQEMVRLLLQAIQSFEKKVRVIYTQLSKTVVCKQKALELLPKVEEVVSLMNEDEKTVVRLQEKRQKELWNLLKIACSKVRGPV

[2] = target: T2, 6xHis-IKKβ(1-669) EE K469E (human, UniProt O14920 1-669, S177E | S181E | K469E)
T2 sequence (looked up): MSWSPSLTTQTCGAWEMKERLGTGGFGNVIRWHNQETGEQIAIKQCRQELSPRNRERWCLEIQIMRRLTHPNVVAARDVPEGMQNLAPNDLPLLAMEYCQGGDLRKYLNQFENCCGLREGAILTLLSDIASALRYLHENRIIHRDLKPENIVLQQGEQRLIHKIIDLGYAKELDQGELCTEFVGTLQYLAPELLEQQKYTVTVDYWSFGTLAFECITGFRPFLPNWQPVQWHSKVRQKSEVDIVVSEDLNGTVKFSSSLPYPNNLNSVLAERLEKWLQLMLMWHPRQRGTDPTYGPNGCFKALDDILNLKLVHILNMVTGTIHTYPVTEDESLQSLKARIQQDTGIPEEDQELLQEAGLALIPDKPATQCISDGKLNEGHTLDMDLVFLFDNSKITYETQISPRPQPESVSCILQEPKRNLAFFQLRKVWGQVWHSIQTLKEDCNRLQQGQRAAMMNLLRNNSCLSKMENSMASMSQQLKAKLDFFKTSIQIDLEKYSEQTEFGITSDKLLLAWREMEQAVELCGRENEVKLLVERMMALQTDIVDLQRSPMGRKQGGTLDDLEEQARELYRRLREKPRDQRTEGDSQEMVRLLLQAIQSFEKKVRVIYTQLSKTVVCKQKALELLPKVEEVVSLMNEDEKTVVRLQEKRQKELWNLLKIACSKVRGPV

[3] = target: T3, 6xHis-IKKβ(1-669) EE M475A (human, UniProt O14920 1-669, S177E | S181E | M475A)
T3 sequence (looked up): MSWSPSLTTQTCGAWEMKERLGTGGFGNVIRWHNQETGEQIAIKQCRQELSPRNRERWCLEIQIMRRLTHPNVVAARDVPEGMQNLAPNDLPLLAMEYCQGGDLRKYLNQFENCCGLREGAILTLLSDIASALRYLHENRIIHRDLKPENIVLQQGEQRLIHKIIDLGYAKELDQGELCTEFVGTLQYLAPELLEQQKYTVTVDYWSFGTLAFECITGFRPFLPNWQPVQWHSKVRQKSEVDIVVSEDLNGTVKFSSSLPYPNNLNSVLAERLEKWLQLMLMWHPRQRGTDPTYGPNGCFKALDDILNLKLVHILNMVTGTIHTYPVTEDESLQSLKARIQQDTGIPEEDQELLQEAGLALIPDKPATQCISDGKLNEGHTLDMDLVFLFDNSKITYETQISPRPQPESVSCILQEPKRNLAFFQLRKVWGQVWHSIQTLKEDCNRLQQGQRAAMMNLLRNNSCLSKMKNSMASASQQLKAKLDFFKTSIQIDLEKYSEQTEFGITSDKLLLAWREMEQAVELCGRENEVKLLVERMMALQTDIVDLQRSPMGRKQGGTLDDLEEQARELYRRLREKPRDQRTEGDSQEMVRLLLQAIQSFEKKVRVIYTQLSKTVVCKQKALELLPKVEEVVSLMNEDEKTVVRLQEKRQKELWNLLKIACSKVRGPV

Measured: binding result

DELPYDDCVFGGQRLTL (peptide, UniProt P25963 301-317, looked up) [MBP-IκBα pep(s)]
binds: all assays above
